{"source": "paper PMC6478893", "origin": "cited, not measured here", "target": "Glu73 (UniProt position 86, GLTFTEKWNTD)"}
{"substance": "Voltage-dependent anion channel 1 (VDAC1) (Mus musculus (inferred from the title of ref. 51, 'mVDAC1'; the article text says only 'VDAC1'))", "values": [{"measurement": "pKa", "value": "~7.4"}]}
